Data taken from patent publication US20220169722A1 (WUXI BIOLOGICS IRELAND, published 2022).
Read-outs that look alike come from different tables or passages of the source.

Legend:
[1] = biological target: T1, human LAG-3 on transfected cells (human, UniProt P18627 23-525); test: FACS affinity on transfected cells
T1 construct: whole, on cells; Flp-In-293 or CHO-K1 cells transfected with full length human LAG-3; also called cell surface human LAG-3
T1 sequence (looked up): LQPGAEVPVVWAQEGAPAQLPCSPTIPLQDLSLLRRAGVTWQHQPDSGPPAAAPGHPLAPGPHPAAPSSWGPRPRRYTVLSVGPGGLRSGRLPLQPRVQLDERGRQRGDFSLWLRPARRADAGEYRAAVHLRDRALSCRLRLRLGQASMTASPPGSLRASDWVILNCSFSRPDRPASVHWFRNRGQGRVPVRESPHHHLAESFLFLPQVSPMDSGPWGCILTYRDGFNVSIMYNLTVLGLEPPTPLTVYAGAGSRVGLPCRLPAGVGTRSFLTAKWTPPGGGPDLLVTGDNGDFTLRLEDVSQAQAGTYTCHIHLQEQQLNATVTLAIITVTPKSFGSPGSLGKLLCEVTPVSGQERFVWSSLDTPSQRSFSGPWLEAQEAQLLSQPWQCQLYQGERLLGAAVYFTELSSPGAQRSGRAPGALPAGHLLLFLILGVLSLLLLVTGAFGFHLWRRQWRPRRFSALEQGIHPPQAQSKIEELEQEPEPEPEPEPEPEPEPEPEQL

[2] = biological target: T2, mouse LAG-3 on transfected cells (mouse, UniProt Q61790 24-521); test: FACS affinity on transfected cells
T2 construct: whole, on cells; Flp-In-CHO cells transfected with mouse LAG-3; also called cell surface mouse LAG-3; murine LAG-3
T2 sequence (looked up): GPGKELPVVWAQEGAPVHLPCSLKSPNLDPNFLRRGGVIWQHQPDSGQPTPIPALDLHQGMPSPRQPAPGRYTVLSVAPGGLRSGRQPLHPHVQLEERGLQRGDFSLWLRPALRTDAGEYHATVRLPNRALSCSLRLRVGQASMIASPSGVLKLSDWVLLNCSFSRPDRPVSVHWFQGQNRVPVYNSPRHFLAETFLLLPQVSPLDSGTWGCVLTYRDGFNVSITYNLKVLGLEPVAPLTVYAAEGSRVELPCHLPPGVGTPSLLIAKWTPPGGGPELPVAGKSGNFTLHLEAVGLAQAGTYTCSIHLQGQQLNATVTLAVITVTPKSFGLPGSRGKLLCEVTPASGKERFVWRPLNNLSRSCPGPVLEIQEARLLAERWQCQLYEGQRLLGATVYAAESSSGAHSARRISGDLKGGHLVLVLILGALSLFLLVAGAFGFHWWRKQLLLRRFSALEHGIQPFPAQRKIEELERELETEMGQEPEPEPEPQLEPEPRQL

[3] = biological target: T3, cynomolgus LAG-3 on transfected cells (cynomolgus monkey); test: FACS affinity on transfected cells
T3 construct: whole, on cells; 293F cells transfected with cynomolgus LAG-3; also called cell surface cynomolgus LAG-3; monkey LAG-3

[4] = biological target: T3, cynomolgus LAG-3 on transfected cells; test: FACS on cynomolgus LAG-3 transfected cells
Procedure: (§1) Similarly, cross-reactivity to cynomolgus or murine LAG-3 was tested by FACS with cyno or murine LAG-3 transfected cell lines.

[5] = biological target: T4, human LAG-3 protein (SPR analyte) (human, UniProt P18627 23-450); test: SPR Biacore 8K, Ab captured on anti-human Fc, LAG-3 as analyte
T4 construct: extracellular domain
T4 sequence (looked up): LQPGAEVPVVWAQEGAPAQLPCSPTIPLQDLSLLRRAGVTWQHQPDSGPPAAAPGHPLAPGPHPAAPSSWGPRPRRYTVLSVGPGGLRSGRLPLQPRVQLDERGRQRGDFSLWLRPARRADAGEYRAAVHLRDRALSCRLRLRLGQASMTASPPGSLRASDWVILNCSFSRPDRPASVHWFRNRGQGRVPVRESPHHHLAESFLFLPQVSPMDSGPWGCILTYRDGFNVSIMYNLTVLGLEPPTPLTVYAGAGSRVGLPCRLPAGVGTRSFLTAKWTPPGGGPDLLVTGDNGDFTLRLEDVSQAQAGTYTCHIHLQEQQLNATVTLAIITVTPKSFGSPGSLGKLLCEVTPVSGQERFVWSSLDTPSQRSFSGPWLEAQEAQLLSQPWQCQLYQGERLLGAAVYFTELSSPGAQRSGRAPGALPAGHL

[6] = biological target: T5, mouse LAG-3 protein (SPR analyte) (mouse, UniProt Q61790 24-442); test: as above
T5 construct: extracellular domain
T5 sequence (looked up): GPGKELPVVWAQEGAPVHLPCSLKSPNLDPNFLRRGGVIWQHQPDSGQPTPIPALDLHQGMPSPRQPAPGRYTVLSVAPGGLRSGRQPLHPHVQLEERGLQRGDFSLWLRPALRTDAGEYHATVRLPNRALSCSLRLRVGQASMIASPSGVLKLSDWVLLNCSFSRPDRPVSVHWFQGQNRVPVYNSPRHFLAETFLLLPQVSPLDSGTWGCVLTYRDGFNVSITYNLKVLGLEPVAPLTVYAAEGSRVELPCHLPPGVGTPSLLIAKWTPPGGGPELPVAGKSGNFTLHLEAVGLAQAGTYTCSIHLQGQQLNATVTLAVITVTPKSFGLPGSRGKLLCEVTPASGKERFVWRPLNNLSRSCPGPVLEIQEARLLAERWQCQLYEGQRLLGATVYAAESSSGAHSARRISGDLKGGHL

[7] = biological target: T6, mFc-tagged mouse LAG-3 (mouse, UniProt Q61790 24-442); test: FACS competition; blocks mFc-mouse LAG-3 binding to MHC-II on A20 cells
T6 construct: extracellular domain; also called mFc-tagged mouse protein
T6 sequence (looked up): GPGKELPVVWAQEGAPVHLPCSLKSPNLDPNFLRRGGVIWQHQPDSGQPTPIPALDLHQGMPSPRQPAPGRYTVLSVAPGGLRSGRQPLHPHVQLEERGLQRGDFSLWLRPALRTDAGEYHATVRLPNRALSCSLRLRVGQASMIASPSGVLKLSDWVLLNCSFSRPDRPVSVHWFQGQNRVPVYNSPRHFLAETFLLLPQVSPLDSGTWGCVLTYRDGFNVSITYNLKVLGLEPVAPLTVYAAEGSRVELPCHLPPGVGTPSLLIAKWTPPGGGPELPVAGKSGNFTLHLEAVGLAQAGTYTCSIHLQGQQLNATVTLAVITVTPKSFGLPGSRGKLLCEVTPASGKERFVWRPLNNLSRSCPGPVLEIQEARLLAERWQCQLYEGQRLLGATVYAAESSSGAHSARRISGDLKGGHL

[8] = biological target: human CD4 (human, UniProt P01730 26-390, limits assumed); test: ELISA, plates coated with human CD4, goat anti-human IgG Fc-HRP
Procedure: Cross-reactivity to human CD4 was measured by ELISA. Plates were coated with human CD4 at 1 μg/ml overnight at 4° C. After blocking and washing, 1 μg/ml of LAG-3 antibodies were added to the plates and incubated at room temperature for 1 h. The plates were then washed and subsequently incubated with goat-anti human IgG Fc-HRP for 45 min. After washing, TMB substrate was added and the color reaction was stopped by 2M HCl. The absorbance at 450 nm was read using a microplate reader.

[9] = biological target: T3, cynomolgus LAG-3 on transfected cells; test: FACS, serial dilutions on cynomolgus LAG-3 transfected cells, PE-labeled secondary antibody
Procedure: as §1

[10] = biological target: T1, human LAG-3 on transfected cells; test: FACS on human LAG-3 transfected cells with serum-treated antibody, PE-labeled goat anti-human IgG
Procedure: On indicated time points (day 0, day 1, day 4, day 7 and day 14), an aliquot of serum treated sample were removed from the incubator and snap frozen in liquid N2, and then stored at −80° C. until ready for test. All the samples were quickly thawed prior to the stability test. […] MFI of the cells was measured by a flow cytometry and analyzed by FlowJo.

[11] = biological target: T7, mouse Fc (mFc)-tagged human LAG-3 (human, UniProt P18627 23-450); test: ELISA blocking: antibody pre-mixed with mFc-tagged human LAG-3, added to plates coated with human LSECtin (blocked ligand); detection goat anti-mouse IgG Fc-HRP
T7 construct: extracellular domain
T7 sequence (looked up): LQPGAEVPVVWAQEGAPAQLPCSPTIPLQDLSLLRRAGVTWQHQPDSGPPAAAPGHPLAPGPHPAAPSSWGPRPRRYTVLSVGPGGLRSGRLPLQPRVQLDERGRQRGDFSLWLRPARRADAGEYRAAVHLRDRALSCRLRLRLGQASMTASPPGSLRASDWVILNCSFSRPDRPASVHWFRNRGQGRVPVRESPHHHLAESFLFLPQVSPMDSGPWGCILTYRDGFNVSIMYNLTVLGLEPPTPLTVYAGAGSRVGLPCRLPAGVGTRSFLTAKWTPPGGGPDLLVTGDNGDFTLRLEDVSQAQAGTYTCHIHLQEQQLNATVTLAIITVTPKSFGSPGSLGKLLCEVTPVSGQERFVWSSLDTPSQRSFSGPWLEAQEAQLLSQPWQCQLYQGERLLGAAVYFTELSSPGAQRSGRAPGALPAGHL
Procedure: (§2) 96-well plates were coated with human LSECtin or Galectin-3 at 0.5 μg/ml overnight at 4° C., respectively. […] After blocking and washing, the mixture was transferred to the plates and incubated at room temperature for 1 h. The plates were then washed and subsequently incubated with the secondary antibody goat-anti Mouse IgG Fc-HRP for 1 h. After washing, TMB substrate was added and the color reaction was stopped by 2M HCl. The absorbance at 450 nm was read using a microplate reader.

[12] = biological target: T7, mouse Fc (mFc)-tagged human LAG-3; test: ELISA blocking: antibody pre-mixed with mFc-tagged human LAG-3, added to plates coated with human Galectin-3 (blocked ligand); detection goat anti-mouse IgG Fc-HRP
Procedure: as §2

[13] = biological target: T7, mouse Fc (mFc)-tagged human LAG-3; test: FACS blocking: antibody pre-mixed with mFc-tagged human LAG-3, added to Raji cells; blocked ligand: human MHC-II on Raji cells; detection goat anti-mouse IgG Fc-PE
Procedure: The mixture was transferred into the 96-well plates seeded with Raji cells. Goat anti-mouse IgG Fc-PE antibody was used to detect the binding of LAG-3 protein to Raji cells. The mean fluorescence intensity (MFI) was evaluated by flow cytometry and analyzed by FlowJo.

[14] = biological target: T2, mouse LAG-3 on transfected cells; test: FACS on mouse LAG-3 transfected cells
Procedure: as §1

[15] = biological target: T1, human LAG-3 on transfected cells; test: FACS affinity on transfected cells; remark: listed apart in the source
[16] = biological target: T3, cynomolgus LAG-3 on transfected cells; test: FACS affinity on transfected cells; remark: listed apart in the source
[17] = biological target: T4, human LAG-3 protein (SPR analyte); test: SPR Biacore 8K, Ab as ligand, LAG-3 as analyte
[18] = biological target: T5, mouse LAG-3 protein (SPR analyte); test: SPR Biacore 8K, Ab as ligand, LAG-3 as analyte
[19] = biological target: T1, human LAG-3 on transfected cells; test: FACS, serial dilutions on human LAG-3 transfected cells, PE-labeled secondary antibody
[20] = biological target: T7, mouse Fc (mFc)-tagged human LAG-3; test: ELISA blocking: antibody pre-mixed with mFc-tagged human LAG-3, added to plates coated with human LSECtin (blocked ligand); detection goat anti-mouse IgG Fc-HRP; remark: listed apart in the source
Procedure: as §2

[21] = biological target: T7, mouse Fc (mFc)-tagged human LAG-3; test: ELISA blocking: antibody pre-mixed with mFc-tagged human LAG-3, added to plates coated with human Galectin-3 (blocked ligand); detection goat anti-mouse IgG Fc-HRP; remark: listed apart in the source
Procedure: as §2

B1: W3396-R2-13 (Fc fusion)
VHH: QVQLVESGGGVVQPGGSLRLSCAASGLTLSQYTMGWFRQAPGKERELVAAIHWTSSVTDYADSVRGRFTISRDDSKNTGYLQMNSLRAEDTAVYYCAATWYYTHRGSFDYWGQGTLVTVSS
- Bmax [1]: 200 pM
- Kd [1]: 920 pM
- Bmax [2]: 53 pM
- Kd [2]: 54 pM
- Bmax [3]: 310 pM
- Kd [3]: 5000 pM
- EC50 [4]: 2160 pM
- Kd [5]: 4060 pM
- koff [5]: 0.000197 s⁻¹
- kon [5]: 48400 M⁻¹ s⁻¹
- Kd [6]: < 0.952 pM
- koff [6]: < 1e-06 s⁻¹
- kon [6]: 1.05e+06 M⁻¹ s⁻¹
- IC50 [7]: 2400 pM
- binding result [8]: no binding (tested: 66.7 nM)
- EC50 [9]: 2160 pM
- EC50 (read off the curve) [10]: ~200 pM
- IC50 [11]: 797 pM
- IC50 [12]: 1300 pM
- IC50 [13]: 460 pM

B2: W3396-R2-2 (Fc fusion)
VHH: QVQLVESGGGVVQPGGSLRLSCAASGLTLSQYTMGWFRQAPGKERELVAAIHWTSSVTDYADSVYGRFTISRDDSKNTGYLQMNSLRAEDTAVYYCAATHYYTHRGPFDYWGQGTLVTVSS
- EC50 [14]: 130 pM
- Kd [15]: 460 pM
- Bmax [16]: 300 pM
- Kd [17]: 165 pM
- Kd [18]: < 0.575 pM
- binding result [8]: no binding (tested: 33.4 nM)
- EC50 [19]: 228 pM
- IC50 [20]: 1610 pM
- IC50 [21]: 1230 pM
